Measured values published in the DeepSol protein solubility set.

Test: soluble on expression in E. coli; label from the status in PepcDB or PDB records

Row | Sequence | soluble on expression in E. coli
1 | SEDDAPVIYGLEFQARALTPQTAETDAIRFLVGTQSLKYDNQIHIIDFDDENNIINKNVLLHQAGEIWHISASPADRGVLTTCYNRTSDSKVLTCAAVWRMPKELESGSHESPDDSSSTAQTLELLCHLDNTAHGNMACVVWEPMGDGKKIISLADNHILLWDLQESSSQAVLASSASLEGKGQLKFTSGRWSPHHNCTQVATANDTTLRGWDTRSMSQIYCIENAHGQLVRDLDFNPNKQYYLASCGDDCKVKFWDTRNVTEPVKTLEEHSHWVWNVRYNHSHDQLVLTGSSDSRVILSNMVSISSEPFGHLVDDDDISDQEDHRSEEKSKEPLQDNVIATYEEHEDSVYAVDWSSADPWLFASLSYDGRLVINRVPRALKYHILL | soluble
2 | SEEASTGTMVLLWAGGFQKVGGEQVSPLTGEVTRHRDRNIPYNLPVPSHPSNWVPLAAEVGPDSCDCGGPAPGLLLLLTRPHDPQFTVPSGWGRQLCPGHALLDEPLLPETGGHPVCERVGHPAPSGPPDLLGLAAGHVLCRVRHDTPVRIPGTGSGCVCTHPAVQWQADLLPHLTLWPNPGQGTVRTSVRNSGHTEEQQVGLS | soluble
3 | SEENEEEEELRPTALYTVGGSDEFTFVSPDGLSGQYTGPDHDGVVLQTENPAPTNCLAYYFEVHIMNAGEKGEIAIGFSKEHIYSEGYTVRSCAYIGNSGLICSQNGDGDRTVAKASDTYTTGDLVGCGIDSVSQEFFFTKNGTIVGTIPRQFRRPVYPTIVLHSQNEAVTVNFGGQIAFSFDFEVRSYFSFLA | soluble
4 | SEHWQAGRFIGQQTSARPSSKPLLAVQIDDLLTLASRFVGEERARQSFIRFAYRQGKGFNPNQNADGDWIEHTERLLAGVLGTSSTRAVVKAAIEGRDMQLEDVVRIADEASEVLQFNRALLQGAIENINQGISVVDQNL | not soluble
5 | SENLPAVTTEEPTPMGRGPVGPSGGGSTRDQVRTVVMRPSVSWEKAGPEEAKAPVRGGATVPAESLERPGPSSCFSRDASVITKLAKNEAGAFEPPCSETVPETVRWVWPWNP | soluble
6 | SERCDDWGLDTMRQIQVFEDEPARIKCPLFEHFLKFNYSTAHSAGLTLIWYWTRQDRDLEEPINFRLPENRISKEKDVLWFRPTLLNDTGNYTCMLRNTTYCSKVAFPLEVVQKDSCFNSPMKLPVHKLYIEYGIQRITCPNVDGYFPSSVKPTITWYMGCYKIQNFNNVIPEGMNLSFLIALISNNGNYTCVVTYPENGRTFHLTRTLTVKVVGSPKNAVPPVIHSPNDHVVYEKEPGEELLIPCTVYFSFLMDSRNEVWWTIDGKKPDDITIDVTINESISHSRTEDETRTQILSIKKVTSEDLKRSYVCHARSAKGEVAKAAKVKQKGNRCGQ | soluble
7 | SETESDAEVACDLSNMEITEELRQYFAETERHREELLRRQQLDAERLNSYVNAEHDLYCNTRRSVEAPAERPGERRQAEMKRLYWDSAAKIQAMEANVQLSFDKHCDPKQPNYWPVIPPKF | soluble
8 | SFQGQRGWFCGSVSQDLRQFWVAEGGTISDPRAADFLFSCDASHPDTLRIYQSLDYIEDNATVFHAYYLSAVANAKIKNSVALGHFILPPACLQKEIRRKIGSFIWEQDQHFLIEKHDEVTPNEIKTLRENSELATEHKKELSKSPEKHFIRTPVVEKQMYFPLQNYPVNNMVTGYISIDAMKKFLGELHDFIPGTSGYLAYHVQNEINMSAIKNKLKRK | soluble
9 | SFQRALPRQPVPSAQETVRKYLESVRPVLGDDAFDRATALANDFLRLHAPRLQLYLQLKSWCTSNYVSDWWEEFVYLRSRGSLINSTYYMMDFLYVTPTPLQAARAGNAVHTLLLYRHLLNRQEISPTLLMGMRPLCSAQYERMFNTTRIPGVEKDHLRHLQDSRHVAVFHRGRFFRVGTHSPNGLLSPRALEQQFQDILDDPSPACPLEEHLAALTAAPRSMWAQVRESVKTHAATALEAVEGAAFFVSLDSEPAGLTREDPAASLDAYAHALLAGRGHDRWFDKSFTLIVFSNGKLGLSVEHSWADCPVSGHLWEFTLATECFQLGYATDGHCKGHPDPTLPQPQRLQWDLPEQIQPSISLALRGAKTLSGNIDCHVFPFSHFGKSFIKCCHVSSDSFIQLVLQLAHFRDRGQFCLTYESAMTRLFLEGRTETVRSCTREACQFVRAMDNKETDQHCLALFRVAVDKHQALLKAAMSGQGIDRHLFALYIMSRLLHMQSPFLTQVQSQQWLLSTSQVPVQQTHLIDVHNYPDYVSSGGGFGPAHDHGYGISYIFMGENAITFHISSKKSSTETDSHRLGQHIENALLDVASLFRVGQHFKRQFRGENSDYRYNFLSCKTVDPNTPTSSTNL | soluble
